From patent US20140356358A1 (Amgen, published 2014)

How the values were obtained:
[1] = target: T1, human neonatal Fc receptor (hFcRn) (human, UniProt P55899 24-290; P61769 21-119); assay: BLI (Octet), association pH 6, dissociation pH 7.4
T1 construct: Biotinylated in the ELISA, Octet and yeast assays; also called human FcRn; huFcRn
Text: To further characterize some of the variant Fc-fragments identified by the phage ELISA, binding of the variant Fc-fragments to FcRn at pH 6 and 7.4 was characterized for a subset of the identified variant Fc-fragments. DNA encoding selected variant Fc-fragment isolates, all from library L5, was introduced into a mammalian expression vector, which was used to transfect 293 6E cells using deacylated PEI essentially as described by Thomas et al. (Proc. Natl. Acad. Sci. 102(16): 5679-5684, 2005), the relevant portions of which are incorporated herein by reference. […] Concentrations were calculated using a standard curve created with a purified Fc fusion protein.
Biotinylated hFcRn at 100 nM was captured on streptavidin (SA) biosensors (ForteBio Inc., 18-5019) off-line at RT for 2 hours. Using these biotinylated hFcRn-coated SA biosensors in the Octet Red® system, association and dissociation of unlabeled proteins can be detected in real time via […] of light. […] Three association and dissociation conditions were set up: (1) association at pH 6 and dissociation at pH 6; (2) association at pH 6 and dissociation at pH 7.4; and (3) association at pH 7.4 and dissociation at pH 7.4. SA biosensors coated with biotinylated hFcRN were dipped into buffer at a specific pH for 1 min and then soaked in the samples containing variant Fc-fragments or controls at a specific pH for 5 min to allow binding to FcRn. The Fc biosensors were then soaked in buffer at a specific pH for 5 minutes more to allow the bound Fc-fragments to dissociate from FcRn. Detection of binding and dissociation of the Fc-fragments was possible through the use of bio-layer interferometry as implemented using the Octet Red® system, so that binding and dissociation were detected in real time.

[2] = target: T1, human neonatal Fc receptor (hFcRn); assay: SPR competition pH 7.4
Method: (§1) Binding of variant Fc-fragments to human and cynomolgus monkey FcRn was tested using a BIAcore® T100 analysis system (GE Healthcare Bio-Sciences AB Private Limited Liability Company, Uppsala, Sweden) at both pH 5.5 and pH 7.4. The test consisted of incubating various concentrations of the variant Fc-fragments or control Fc-fragments with a fixed amount of human or cynomolgus monkey FcRn under binding conditions and subsequently measuring the amount of free, unbound FcRn in these mixtures by binding to a surface (in a flow cell of a CM5 (Biacore) chip) on which an Fc-fragment was immobilized. […] Thus, the amount of unbound FcRn in the mixture was quantitatively ascertained by surface plasmon resonance through use of the BIAcore® T100 analysis system. […] Initially, a group of 23 variant-Fc-fragments (Fc-5-1 being considered a control) identified in the experiments described above were tested for binding to human FcRn.
(§2) As positive controls, 10 mM human and cynomolgus monkey FcRn were each incubated in the same solution, for the same time, and at the same temperature described immediately above, but without an added Fc-fragment.

cynomolgus monkey FcRn [3] = target: T2, cynomolgus monkey FcRn (cynomolgus monkey, UniProt Q8SPV9 24-297; Q8SPW0 21-119, limits assumed); assay: SPR competition pH 7.4
T2 construct: also called Cynomolgus FcRn
Method: as §1, §2

[4] = target: T1, human neonatal Fc receptor (hFcRn); assay: SPR competition pH 5.5
Method: as §1
(§3) To obtain a reasonable signal for the different molecules and conditions tested, different assay conditions were used. For assays at pH 5.5, 10 nM of human or cynomolgus monkey FcRn was mixed with serial dilutions of the variant and control Fc-fragments being tested (which ranged from 0.1˜2,000 nM) and incubated for 1 hour at room temperature in 10 mM sodium acetate, pH 5.5, 150 mM NaCl, 0.005% P20, 0.1 mg/mL BSA. As positive controls, […] human and cynomolgus monkey FcRn were each incubated in the same solution, for the same time, and at the same temperature described immediately above, but without an added Fc-fragment.

cynomolgus monkey FcRn [5] = target: T2, cynomolgus monkey FcRn; assay: SPR competition pH 5.5
Method: as §1, §3

[6] = target: T1, human neonatal Fc receptor (hFcRn); assay: SPR competition pH 5.5; remark: listed apart in the source
cynomolgus monkey FcRn [7] = target: T2, cynomolgus monkey FcRn; assay: SPR competition pH 5.5; remark: listed apart in the source
cynomolgus monkey FcRn [8] = target: T2, cynomolgus monkey FcRn; assay: SPR competition pH 7.4; remark: listed apart in the source
[9] = target: T1, human neonatal Fc receptor (hFcRn); assay: SPR competition pH 7.4; remark: listed apart in the source

T2 sequence (Q8SPV9 24-297 limits assumed, chain 1 of 2): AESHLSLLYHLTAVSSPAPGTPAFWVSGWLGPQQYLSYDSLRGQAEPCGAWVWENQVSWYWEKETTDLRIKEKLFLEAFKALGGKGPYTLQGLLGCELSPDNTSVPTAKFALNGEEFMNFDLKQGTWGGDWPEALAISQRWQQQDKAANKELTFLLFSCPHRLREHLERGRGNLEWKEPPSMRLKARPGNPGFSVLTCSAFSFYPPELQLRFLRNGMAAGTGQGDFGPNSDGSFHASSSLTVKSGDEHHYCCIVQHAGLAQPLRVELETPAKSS
T2 sequence (Q8SPW0 21-119 limits assumed, chain 2 of 2): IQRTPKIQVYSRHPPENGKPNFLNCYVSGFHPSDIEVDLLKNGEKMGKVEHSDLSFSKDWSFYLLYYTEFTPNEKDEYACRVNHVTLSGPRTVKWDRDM

B1: variant Fc-fragment 5-1-6 (other)
chain: EPKSCDKTHTCPPCPAPELLGGPSVFLFPPKPKDTLMISRTPEVTCVVVDVSHEDPEVKFNWYVDGVEVHNAKTKPREEQYNSTYRVVSVLTVLHQDWLNGKEYKCKVSNKALPAPIEKTISKAKGQPREPQVYTLPPSRDELTKNQVSLTCLVKGFYPSDIAVEWESNGQPEGGCGMPIEFCGGNNYKTTPPVLDSDGSFFLYSKLTVDKSRWQQGNVFSCSVMHEALHNHYTQKSLSLSPGK
B1: binds [1].

B2: variant Fc-fragment 5-1-8 (other)
chain: EPKSCDKTHTCPPCPAPELLGGPSVFLFPPKPKDTLMISRTPEVTCVVVDVSHEDPEVKFNWYVDGVEVHNAKTKPREEQYNSTYRVVSVLTVLHQDWLNGKEYKCKVSNKALPAPIEKTISKAKGQPREPQVYTLPPSRDELTKNQVSLTCLVKGFYPSDIAVEWESNGQPENNGGCGMPIEFCGGYKTTPPVLDSDGSFFLYSKLTVDKSRWQQGNVFSCSVMHEALHNHYTQKSLSLSPGK
B2: binds [1].

B3: variant Fc-fragment 5-1-7 (other)
chain: EPKSCDKTHTCPPCPAPELLGGPSVFLFPPKPKDTLMISRTPEVTCVVVDVSHEDPEVKFNWYVDGVEVHNAKTKPREEQYNSTYRVVSVLTVLHQDWLNGKEYKCKVSNKALPAPIEKTISKAKGQPREPQVYTLPPSRDELTKNQVSLTCLVKGFYPSDIAVEWESNGQPENGGCGMPIEFCGGNYKTTPPVLDSDGSFFLYSKLTVDKSRWQQGNVFSCSVMHEALHNHYTQKSLSLSPGK
B3: binds [1].

B4: variant Fc-fragment Fc-5-1 (other)
chain: EPKSCDKTHTCPPCPAPELLGGPSVFLFPPKPKDTLMISRTPEVTCVVVDVSHEDPEVKFNWYVDGVEVHNAKTKPREEQYNSTYRVVSVLTVLHQDWLNGKEYKCKVSNKALPAPIEKTISKAKGQPREPQVYTLPPSRDELTKNQVSLTCLVKGFYPSDIAVEWESNGGCGMPIEFCGGGQPENNYKTTPPVLDSDGSFFLYSKLTVDKSRWQQGNVFSCSVMHEALHNHYTQKSLSLSPGK
notes: library L5 isolate; also called variant 5-1
An EC50 [2] of 45 nM, an EC50 (cynomolgus monkey FcRn [3]) of 42 nM and an EC50 [4] of 2.6 nM were found for B4 in this work. For the same binder, the EC50 (cynomolgus monkey FcRn [5]) was 2.3 nM.

B5: variant Fc-fragment Fc-5-106-M4I (other)
chain: EPKSCDKTHTCPPCPAPELLGGPSVFLFPPKPKDTLMISRTPEVTCVVVDVSHEDPEVKFNWYVDGVEVHNAKTKPREEQYNSTYRVVSVLTVLHQDWLNGKEYKCKVSNKALPAPIEKTISKAKGQPREPQVYTLPPSRDELTKNQVSLTCLVKGFYPSDIAVEWESNGGCVFNIFNCGGGQPENNYKTTPPVLDSDGSFFLYSKLTVDKSRWQQGNVFSCSVMHEALHNHYTQKSLSLSPGK
An EC50 [6] of 2.6 nM, an EC50 (cynomolgus monkey FcRn [7]) of 3.2 nM and an EC50 (cynomolgus monkey FcRn [8]) of 970 nM were found for B5 in this work.

B6: variant Fc-fragment Fc-5-106-M4T (other)
chain: EPKSCDKTHTCPPCPAPELLGGPSVFLFPPKPKDTLMISRTPEVTCVVVDVSHEDPEVKFNWYVDGVEVHNAKTKPREEQYNSTYRVVSVLTVLHQDWLNGKEYKCKVSNKALPAPIEKTISKAKGQPREPQVYTLPPSRDELTKNQVSLTCLVKGFYPSDIAVEWESNGGCVFNTFNCGGGQPENNYKTTPPVLDSDGSFFLYSKLTVDKSRWQQGNVFSCSVMHEALHNHYTQKSLSLSPGK
An EC50 [6] of 10 nM and an EC50 (cynomolgus monkey FcRn [7]) of 8.3 nM were found for B6 in this work.

B7: variant Fc-fragment Fc-5-106 (other)
chain: EPKSCDKTHTCPPCPAPELLGGPSVFLFPPKPKDTLMISRTPEVTCVVVDVSHEDPEVKFNWYVDGVEVHNAKTKPREEQYNSTYRVVSVLTVLHQDWLNGKEYKCKVSNKALPAPIEKTISKAKGQPREPQVYTLPPSRDELTKNQVSLTCLVKGFYPSDIAVEWESNGGCVFNMFNCGGGQPENNYKTTPPVLDSDGSFFLYSKLTVDKSRWQQGNVFSCSVMHEALHNHYTQKSLSLSPGK
notes: soluble elsewhere
An EC50 [4] of 5.3 nM, an EC50 (cynomolgus monkey FcRn [5]) of 3.6 nM and an EC50 [6] of 5.4 nM were found for B7 in this work. The EC50 (cynomolgus monkey FcRn [7]) was 4.6 nM.

B8: variant Fc-fragment Fc-5-106-M4L (other)
chain: EPKSCDKTHTCPPCPAPELLGGPSVFLFPPKPKDTLMISRTPEVTCVVVDVSHEDPEVKFNWYVDGVEVHNAKTKPREEQYNSTYRVVSVLTVLHQDWLNGKEYKCKVSNKALPAPIEKTISKAKGQPREPQVYTLPPSRDELTKNQVSLTCLVKGFYPSDIAVEWESNGGCVFNLFNCGGGQPENNYKTTPPVLDSDGSFFLYSKLTVDKSRWQQGNVFSCSVMHEALHNHYTQKSLSLSPGK
An EC50 [6] of 2.3 nM, an EC50 (cynomolgus monkey FcRn [7]) of 2.8 nM and an EC50 [9] of 650 nM were found for B8 in this work. The EC50 (cynomolgus monkey FcRn [8]) was 710 nM.

B9: variant Fc-fragment Fc-5-106-M4V (other)
chain: EPKSCDKTHTCPPCPAPELLGGPSVFLFPPKPKDTLMISRTPEVTCVVVDVSHEDPEVKFNWYVDGVEVHNAKTKPREEQYNSTYRVVSVLTVLHQDWLNGKEYKCKVSNKALPAPIEKTISKAKGQPREPQVYTLPPSRDELTKNQVSLTCLVKGFYPSDIAVEWESNGGCVFNVFNCGGGQPENNYKTTPPVLDSDGSFFLYSKLTVDKSRWQQGNVFSCSVMHEALHNHYTQKSLSLSPGK
An EC50 [6] of 6.2 nM and an EC50 (cynomolgus monkey FcRn [7]) of 5 nM were found for B9 in this work.
